According to PMC7681980:
Where two headings read alike, the source gives them in different places.

Columns and labels:
[1] = molecular target: type I collagen extracted from male Wistar Hannover rat tail tendons (dialyzed) (rat (Wistar Hannover, extracted from tail tendons)) (UniProt P02454); assay: ITC; NaOH (4.6 uM in ultrapure water) titrated in 24 aliquots into 950 uL type I collagen (0.2 mg/mL in 0.33% v/v acetic acid), 30.0 ± 0.1 °C, stirred at 300 rpm; self-assembly (fibrillogenesis) triggered by the rise in pH; areas corrected by the acid-base control titration; enthalpy of self-assembly at the isoelectric point; at least triplicate
[2] = molecular target: type I collagen extracted from male Wistar Hannover rat tail tendons (dialyzed) (rat (Wistar Hannover, extracted from tail tendons)) (UniProt P02454); assay: as above; remark: listed apart in the source

Sequence of type I collagen extracted from male Wistar Hannover rat tail tendons (dialyzed), P02454 152-1207; P02466 86-1125 (complex; other documents disagree on this pair) (P02454 152-1207): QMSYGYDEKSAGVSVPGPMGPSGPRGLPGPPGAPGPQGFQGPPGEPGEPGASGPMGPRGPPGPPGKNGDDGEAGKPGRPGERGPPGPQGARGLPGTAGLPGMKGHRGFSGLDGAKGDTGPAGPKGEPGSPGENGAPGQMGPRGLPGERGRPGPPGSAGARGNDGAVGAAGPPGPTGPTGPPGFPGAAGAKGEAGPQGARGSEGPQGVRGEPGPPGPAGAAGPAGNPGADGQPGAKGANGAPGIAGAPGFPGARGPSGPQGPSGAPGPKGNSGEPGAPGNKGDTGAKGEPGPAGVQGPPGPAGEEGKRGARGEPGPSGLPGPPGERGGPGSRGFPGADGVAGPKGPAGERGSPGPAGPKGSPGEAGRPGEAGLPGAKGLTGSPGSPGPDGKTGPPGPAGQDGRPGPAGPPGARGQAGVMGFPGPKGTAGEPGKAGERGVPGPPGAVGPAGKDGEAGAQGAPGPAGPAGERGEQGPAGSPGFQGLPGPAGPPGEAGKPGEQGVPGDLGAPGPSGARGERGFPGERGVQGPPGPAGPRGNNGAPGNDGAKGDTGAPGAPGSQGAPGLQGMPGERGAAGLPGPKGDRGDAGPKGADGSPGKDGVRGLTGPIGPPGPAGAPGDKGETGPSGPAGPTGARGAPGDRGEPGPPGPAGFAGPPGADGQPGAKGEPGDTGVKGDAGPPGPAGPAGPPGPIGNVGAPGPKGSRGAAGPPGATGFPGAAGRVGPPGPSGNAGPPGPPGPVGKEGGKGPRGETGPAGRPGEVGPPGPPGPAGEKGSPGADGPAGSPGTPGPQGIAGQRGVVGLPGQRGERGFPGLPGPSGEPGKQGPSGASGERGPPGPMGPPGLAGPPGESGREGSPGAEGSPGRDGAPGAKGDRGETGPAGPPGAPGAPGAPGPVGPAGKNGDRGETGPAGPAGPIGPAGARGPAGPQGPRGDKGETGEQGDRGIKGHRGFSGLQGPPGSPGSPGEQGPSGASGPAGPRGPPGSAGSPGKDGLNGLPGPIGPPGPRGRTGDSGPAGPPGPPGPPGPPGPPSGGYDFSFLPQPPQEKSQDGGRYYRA
Sequence of type I collagen extracted from male Wistar Hannover rat tail tendons (dialyzed), P02454 152-1207; P02466 86-1125 (complex; other documents disagree on this pair) (P02466 86-1125): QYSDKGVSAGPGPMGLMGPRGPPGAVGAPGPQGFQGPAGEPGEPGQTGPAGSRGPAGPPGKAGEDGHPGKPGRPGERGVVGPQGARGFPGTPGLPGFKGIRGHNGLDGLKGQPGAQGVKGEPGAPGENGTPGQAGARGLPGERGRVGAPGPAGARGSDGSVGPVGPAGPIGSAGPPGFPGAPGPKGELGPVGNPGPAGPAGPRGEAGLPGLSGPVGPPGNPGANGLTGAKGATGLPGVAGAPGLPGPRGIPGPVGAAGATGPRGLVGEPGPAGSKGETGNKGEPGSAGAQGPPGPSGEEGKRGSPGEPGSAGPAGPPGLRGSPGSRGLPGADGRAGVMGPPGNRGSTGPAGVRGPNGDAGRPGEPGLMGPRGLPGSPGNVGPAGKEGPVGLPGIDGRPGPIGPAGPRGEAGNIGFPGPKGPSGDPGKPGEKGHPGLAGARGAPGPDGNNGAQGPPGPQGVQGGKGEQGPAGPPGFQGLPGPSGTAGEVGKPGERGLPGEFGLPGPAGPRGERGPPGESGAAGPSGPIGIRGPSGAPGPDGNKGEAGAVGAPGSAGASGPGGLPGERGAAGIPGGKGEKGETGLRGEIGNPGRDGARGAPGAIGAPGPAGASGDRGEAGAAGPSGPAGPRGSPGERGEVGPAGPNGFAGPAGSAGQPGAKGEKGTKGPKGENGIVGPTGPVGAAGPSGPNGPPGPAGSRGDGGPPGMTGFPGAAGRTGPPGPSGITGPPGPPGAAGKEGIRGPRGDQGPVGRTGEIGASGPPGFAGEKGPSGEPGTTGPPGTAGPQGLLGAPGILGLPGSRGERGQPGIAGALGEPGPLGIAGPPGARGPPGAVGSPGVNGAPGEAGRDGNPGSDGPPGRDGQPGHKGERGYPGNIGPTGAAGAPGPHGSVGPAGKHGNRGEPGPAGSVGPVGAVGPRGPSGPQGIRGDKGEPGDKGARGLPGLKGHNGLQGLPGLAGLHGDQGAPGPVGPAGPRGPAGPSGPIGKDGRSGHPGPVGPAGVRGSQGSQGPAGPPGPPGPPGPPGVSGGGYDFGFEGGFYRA

Substance: type I collagen extracted from male Wistar Hannover rat tail tendons (dialyzed), P02454 152-1207; P02466 86-1125 (complex; other documents disagree on this pair)
- dH [1]: 0.000784 kcal/mol
- dH [2]: 0.000782 kcal/mol
